From patent US20220275095A1 (SURROZEN OPERATING, published 2022)
Residue numbers refer to the chain shown, from its start.

Columns and labels:
human Fzd10 CRD = molecular target: T1, human Fzd10 CRD (human, UniProt Q9ULW2 21-152, limits assumed); assay: BLI
T1 construct: domain: cysteine rich domain (CRD)
T1 sequence (looked up): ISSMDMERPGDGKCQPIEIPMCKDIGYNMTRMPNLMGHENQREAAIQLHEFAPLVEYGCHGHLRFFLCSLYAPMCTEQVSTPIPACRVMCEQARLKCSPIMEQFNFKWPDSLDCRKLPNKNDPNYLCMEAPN
Method: (§1) C-terminal biotinylated Fzd CRD recombinant protein was diluted to 20 nM in the running buffer (PBS, 0.05% Tween-20, 0.5% BSA, pH 7.2) and captured to the SA biosensor until coupling length reached 0.2 nm. Following capture of the Fzd CRD, the SA biosensor with captured biotinylated-Fzd CRD was dipped into wells containing the relevant antibody fragment at 7 different concentrations (0, 1.37, 4.12, 12.4, 37, 111.1, 333.3, 1000 nM) in running buffer, plus a well with only running buffer as a reference channel. KD was determined by global fitting, 1:1 binding model according to manufacturer recommended settings.

mouse Fzd3 CRD = molecular target: T2, mouse Fzd3 CRD (mouse, UniProt Q61086 23-138, limits assumed); assay: BLI
T2 construct: domain: cysteine rich domain (CRD)
T2 sequence (looked up): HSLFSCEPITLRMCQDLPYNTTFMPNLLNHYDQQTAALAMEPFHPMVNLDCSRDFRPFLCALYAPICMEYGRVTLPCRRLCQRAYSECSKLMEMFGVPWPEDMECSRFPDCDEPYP
Method: as §1

human Fzd6 CRD = molecular target: T3, human Fzd6 CRD (human, UniProt O60353 19-134, limits assumed); assay: BLI
T3 construct: domain: cysteine rich domain (CRD)
T3 sequence (looked up): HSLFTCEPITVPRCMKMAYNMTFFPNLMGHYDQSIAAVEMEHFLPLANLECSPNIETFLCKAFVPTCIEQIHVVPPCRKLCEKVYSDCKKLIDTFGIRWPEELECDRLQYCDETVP
Method: as §1

mouse Fzd2 CRD = mouse Fzd2 CRD (mouse, UniProt Q9JIP6 29-160); assay: BLI
Method: as §1

human Fzd9 CRD = molecular target: T4, human Fzd9 CRD (human, UniProt O00144 23-157, limits assumed); assay: BLI
T4 construct: domain: cysteine rich domain (CRD)
T4 sequence (looked up): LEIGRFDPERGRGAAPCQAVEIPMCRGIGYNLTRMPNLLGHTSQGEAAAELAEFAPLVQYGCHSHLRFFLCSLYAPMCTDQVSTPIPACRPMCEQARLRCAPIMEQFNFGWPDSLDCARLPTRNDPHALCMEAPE
Method: as §1

mouse Fzd5 CRD = molecular target: T5, mouse Fzd5 CRD (mouse, UniProt Q9EQD0 27-152, limits assumed); assay: BLI
T5 construct: domain: cysteine rich domain (CRD)
T5 sequence (looked up): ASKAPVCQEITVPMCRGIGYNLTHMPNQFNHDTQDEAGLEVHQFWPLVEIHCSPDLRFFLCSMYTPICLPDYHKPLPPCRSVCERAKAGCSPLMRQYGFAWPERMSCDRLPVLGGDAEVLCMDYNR
Method: as §1

human Fzd3 CRD = molecular target: T6, human Fzd3 CRD (human, UniProt Q9NPG1 23-138, limits assumed); assay: BLI
T6 construct: domain: cysteine rich domain (CRD)
T6 sequence (looked up): T2 sequence (looked up)
Method: as §1

mouse Fzd9 CRD = molecular target: T7, mouse Fzd9 CRD (mouse, UniProt Q9R216 24-158, limits assumed); assay: BLI
T7 construct: domain: cysteine rich domain (CRD)
T7 sequence (looked up): T4 sequence (looked up) with A14P, V20M, E50Q, A55S
Method: as §1

mouse Fzd7 CRD = mouse Fzd7 CRD (mouse, UniProt Q61090 33-165); assay: BLI
Method: as §1

human Fzd2 CRD = human Fzd2 CRD (human, UniProt Q14332 24-155); assay: BLI
Method: as §1

human Fzd7 CRD = human Fzd7 CRD (human, UniProt O75084 33-165); assay: BLI
Method: as §1

mouse Fzd10 CRD = molecular target: T8, mouse Fzd10 CRD (mouse, UniProt Q8BKG4 22-153, limits assumed); assay: BLI
T8 construct: domain: cysteine rich domain (CRD)
T8 sequence (looked up): T1 sequence (looked up) with M6L, I17V, M29T, G61S, N105K, K107R, R115S
Method: as §1

mouse Fzd4 CRD = molecular target: T9, mouse Fzd4 CRD (mouse, UniProt Q61088 37-163, limits assumed); assay: BLI
T9 construct: domain: cysteine rich domain (CRD)
T9 sequence (looked up): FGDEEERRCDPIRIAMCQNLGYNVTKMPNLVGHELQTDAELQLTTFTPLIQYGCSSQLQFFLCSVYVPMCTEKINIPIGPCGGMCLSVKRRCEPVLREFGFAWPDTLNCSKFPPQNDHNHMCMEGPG
Method: as §1

human Fzd1 CRD = human Fzd1 CRD (human, UniProt Q9UP38 105-232); assay: BLI
Method: as §1

mouse Fzd6 CRD = molecular target: T10, mouse Fzd6 CRD (mouse, UniProt Q61089 19-134, limits assumed); assay: BLI
T10 construct: domain: cysteine rich domain (CRD)
T10 sequence (looked up): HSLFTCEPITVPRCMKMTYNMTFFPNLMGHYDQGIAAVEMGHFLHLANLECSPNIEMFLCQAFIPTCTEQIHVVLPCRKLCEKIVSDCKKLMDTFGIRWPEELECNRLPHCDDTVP
Method: as §1

human Fzd4 CRD = molecular target: T11, human Fzd4 CRD (human, UniProt Q9ULV1 37-163, limits assumed); assay: BLI
T11 construct: domain: cysteine rich domain (CRD)
T11 sequence (looked up): T9 sequence (looked up) with A15S, R97K, D105E, T106S
Method: as §1

human Fzd5 CRD = molecular target: T12, human Fzd5 CRD (human, UniProt Q13467 27-152, limits assumed); assay: BLI
T12 construct: domain: cysteine rich domain (CRD)
T12 sequence (looked up): T5 sequence (looked up) with H51Q, G115R
Method: as §1

mouse Fzd1 CRD = mouse Fzd1 CRD (mouse, UniProt O70421 100-227); assay: BLI
Method: as §1

[1] = molecular target: T13, human Fzd8 cysteine rich domain (CRD) (human, UniProt Q9H461 28-153, limits assumed); assay: BLI, Fab on captured biotinylated Fzd CRD; *** = 100 nM > KD >= 10 nM
T13 construct: domain: cysteine rich domain (CRD); C-terminally biotinylated in the BLI assay; also called hFzd8; hFzd8 (CRD)
T13 sequence (looked up): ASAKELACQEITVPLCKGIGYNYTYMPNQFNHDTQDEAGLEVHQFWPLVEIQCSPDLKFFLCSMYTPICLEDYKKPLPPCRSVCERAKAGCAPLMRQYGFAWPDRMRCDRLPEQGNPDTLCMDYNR
Method: as §1

human Fzd2 hinge region = molecular target: T14, human Fzd2 hinge region (human, UniProt Q14332 150-201); assay: phage ELISA
T14 construct: also called hFzd2L; 2L

Fzd2 CRD = Fzd2 CRD (UniProt Q14332 24-155); assay: BLI (Octet Red 96), biotinylated Fzd2 CRD on streptavidin biosensor
Method: Binding kinetics of monospecific Fzd binders to either (CRD) or the extracellular hinge region (hinge) was determined by bio-layer interferometry (BLI) using Octet Red 96 (PALL ForteBio, Fremont, Calif.) instruments at 30° C., 1000 rpm with streptavidin (SA) biosensors. N-terminal biotinylated Fzd1 or Fzd2 CRD and Fzd1 or Fzd 2 hinge proteins were captured on the SA biosensor. Following capture of biotinylated-Fzd1 or Fzd2, the SA biosensor with captured […] was dipped into wells containing the relevant antibodies at 7 different concentrations in running buffer plus a well with only running buffer as a reference channel. KD was determined by global fitting. As shown in FIGS. 4A-4H these antibody fusion proteins only bound to either Fzd1 or Fzd2 protein with the hinge region, and not to the CRD domains alone.

B1: 027S-E5 Fab (Fab, V domains shown)
VH: QVQLEQSGAEVKKPGASVKVSCKASGGTFSSYAISWVRQAPGQGLEWMGMINPSGGSTTYAQKFQGRVTMTRDTSTSTVYMELSSLRSEDTAVYYCARQAGLHCSSTSCYLGNWFDPWGQGTLVTVSS
VL: DIQMTQSPSSLSASVGDRVTITCRASQGITKSLAWYQQKPGKAPKLLIYAASNLATGVPSRFSGSGSGTDFTLTISSLQPEDFATYYCQQYNTFPITFGQGTRLEIKR
notes: Fab chains as printed, heavy chain with hexa-histidine tag; also called 027S-E05
Q: Does B1 bind (human Fzd10 CRD)?
A: Result: no binding (tested: 1000 nM)

Q: Does B1 bind (mouse Fzd3 CRD)?
A: Result: no binding (tested: 1000 nM)

Q: Does B1 bind (human Fzd6 CRD)?
A: Result: no binding (tested: 1000 nM)

Q: Does B1 bind (mouse Fzd2 CRD)?
A: Result: no binding (tested: 1000 nM)

Q: Does B1 bind (human Fzd9 CRD)?
A: Result: no binding (tested: 1000 nM)

Q: Does B1 bind (mouse Fzd5 CRD)?
A: Result: no binding (tested: 1000 nM)

Q: Does B1 bind (human Fzd3 CRD)?
A: Result: no binding (tested: 1000 nM)

Q: Does B1 bind (mouse Fzd9 CRD)?
A: Result: no binding (tested: 1000 nM)

Q: Does B1 bind (mouse Fzd7 CRD)?
A: Result: no binding (tested: 1000 nM)

Q: Does B1 bind (human Fzd2 CRD)?
A: Result: no binding (tested: 1000 nM)

Q: Does B1 bind (human Fzd7 CRD)?
A: Result: no binding (tested: 1000 nM)

Q: Does B1 bind (mouse Fzd10 CRD)?
A: Result: no binding (tested: 1000 nM)

Q: Does B1 bind (mouse Fzd4 CRD)?
A: Result: no binding (tested: 1000 nM)

Q: Does B1 bind (human Fzd1 CRD)?
A: Result: no binding (tested: 1000 nM)

Q: Does B1 bind (mouse Fzd6 CRD)?
A: Result: no binding (tested: 1000 nM)

Q: Does B1 bind (human Fzd4 CRD)?
A: Result: no binding (tested: 1000 nM)

Q: Does B1 bind (human Fzd5 CRD)?
A: Result: no binding (tested: 1000 nM)

Q: Does B1 bind (mouse Fzd1 CRD)?
A: Result: no binding (tested: 1000 nM)

Q: What about the KD [1] of the same binder?
A: The KD was 10 to 100 nM.

B2: 031S-B02 (antibody, V domains shown)
VH: EVQLLESGGGLVQPGGSLRLSCAASGFTFSSYWMSWVRQAPGKGLEWVSAIGGSGANAYYADSVKGRFTISRDNSKNTLYLQMNSLRAEDTAVYYCVRDTNWAFDLWGQGTMVTVSS
VL: EIVMTQSPATLSVSPGERATLSCRASQSVSGSYLAWYQQKPGQAPRLLIYGASTRATGIPARFSGSGSGTEFTLTISSLQSEDFAVYYCQQYGSSPLTFGQGTKVEIK
notes: also called 31SB2
Q: Does B2 bind (human Fzd2 hinge region)?
A: Result: binds

B3: 031S-B02 Fab (Fab, V domains shown)
VH: B2 VH
VL: B2 VL
notes: also called 31SB2
Q: Does B3 bind (Fzd2 CRD)?
A: Result: no binding
